# According to paper PMC6677171 (2019):
# B1: Mis19 C-terminal peptide (residues 97–112) R105A (peptide)
# peptide: LHNRVFLRANVRAVKM
# Biological target: Mis16 (S. pombe), full length, affinity tag removed (S. pombe, UniProt O94244 1-430)
# Test: ITC
# Mis16 (S. pombe), full length, affinity tag removed, sequence (O94244 whole entry): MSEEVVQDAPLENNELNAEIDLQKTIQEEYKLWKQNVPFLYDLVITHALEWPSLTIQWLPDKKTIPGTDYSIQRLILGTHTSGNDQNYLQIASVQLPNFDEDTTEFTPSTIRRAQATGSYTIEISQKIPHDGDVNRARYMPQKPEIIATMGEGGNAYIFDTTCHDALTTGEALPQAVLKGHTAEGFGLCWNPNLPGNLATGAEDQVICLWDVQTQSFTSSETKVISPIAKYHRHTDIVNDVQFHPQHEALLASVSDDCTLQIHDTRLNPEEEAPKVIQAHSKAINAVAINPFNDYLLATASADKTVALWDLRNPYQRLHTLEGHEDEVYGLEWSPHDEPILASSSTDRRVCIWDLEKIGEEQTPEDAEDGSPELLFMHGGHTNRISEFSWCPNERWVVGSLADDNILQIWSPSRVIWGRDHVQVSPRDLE
binder,measurement,value
B1,Kd,> 1000 nM
